“And” between values parts separate entries of the source, which are not always exact repeats. Equal values may be shown once. Read-outs that look alike come from different tables or passages of the source.
Experiments:
T. guaymasensis ADH [1] = molecular target: T1, T. guaymasensis ADH (Thermococcus guaymasensis, UniProt F8S123); test: Kinetic parameters, ketone reduction with NADPH; assay type: biochemical
Procedure: (§1) The purified enzyme (0.25 μg) initiated the enzyme assay. […] The protein concentrations of all samples were determined using the Bradford method and bovine serum albumin served as the standard protein (Bradford 1976).
(§2) Apparent values of Km and Vmax were calculated using the curve fittings of SigmaPlot (Systat Software Inc., San Jose, Calif., USA).

T. guaymasensis ADH [2] = molecular target: T1, T. guaymasensis ADH; test: Kinetic parameters, alcohol oxidation with NADP+; assay type: biochemical; conditions: co-substrate NADP^+ (0.4 mM)
Procedure: as §1, §2

[3] = Oxygen sensitivity (residual activity after exposure to air); assay type: physicochemical; conditions: for t1/2 upon exposure to the air: room temperature
Procedure: The effect of oxygen on enzyme activity was investigated by exposing the enzyme samples in the air at room temperature and determining the residual activity after oxygen exposure. The exposure was performed in the presence or absence of DDT and SDT. The residual activities of each sample at different time intervals were tested parallelly under the standard assay conditions.

[4] = Optimum pH of enzyme activity; assay type: biochemical
Procedure: (§3) The effect of pH on the enzyme activities was determined over a range of 5.5-11.4. The buffers (100 mM) used were phosphate (pH 5.5-8.0), EPPS (8.0-9.0), glycylglycine (9.0-9.7), and CAPS (9.7-11.4). The effect of the temperature on the enzyme activity was examined at temperatures from 30 to 95° C. Enzyme thermostability was determined by incubating the enzyme in sealed serum bottles at 80° C. and 95° C., respectively. Residual activity was assayed at various time intervals under the standard assay conditions. Substrate specificity was determined using primary and secondary alcohols (50 mM), diols and polyols (50 mM), or aldehydes and ketones (6 mM) under standard assay conditions.
All the catalytic properties of native and recombinant TgADH were determined using the in vitro enzyme assay described above. The optimal pH of ethanol-dependent oxidation of native and recombinant TgADHs was determined by testing and comparing the enzyme activity at a series of pHs. Standard enzyme assay at 80° C. were applied using a set of 100 mM buffers: HEPES (pH 6.5, 7.0, 7.5 and 8.0), EPPS (pH 8.0, 8.5, 8.8, 9.0), glycine (pH 9.0, 9.5, 10.0) and CAPS (pH 10.0, 10.5, 11.0). The optimal pH of acetaldehyde-dependent reduction of native and recombinant TgADH was measured between pH 5.5 and 9.5 using the following buffers (100 mM): citrate (pH 5.5 and 6.0), PIPES (pH 6.0, 6.5 and 7.0), HEPES (pH 7.0, 7.5 and 8.0), EPPS (pH 8.0, 8.5, and 9.0), and glycine (pH 9.0 and 9.5).

[5] = Temperature dependence of enzyme activity; assay type: biochemical
Procedure: as §3
(§4) The effect of the temperature on the enzyme activity was examined at temperatures from 30 to 95° C. The activities were measured using standard assay conditions. Enzyme thermostability was evaluated by incubating the enzyme in sealed serum bottle at 80° C. and 95° C. respectively, and measuring the residual activities at different time intervals under the standard assay conditions.

T. guaymasensis ADH [6] = molecular target: T1, T. guaymasensis ADH; test: Stereoselective conversion between acetoin and 2,3-butanediol (chiral GC); assay type: biochemical
Procedure: All the reactions were carried out at 30° C. for 24 hours unless specified. After that, the reaction mixture (1 ml) was extracted with 1 ml ethyl acetate or dichloride methane with shaking on a Gyrotory water bath shaker model G76 (New Brunswick Scientific Co., INC., NJ, USA) at 350 rpm for 30 min (room temperature). The stereoselectivity of the purified enzyme was determined using the Shimadzu GC-14A gas chromatography equipped with a CP-Chirasil-Dex CB column (0.25 mm ID×25 m length, Varian Inc., Palo Alto, Calif., USA). The following GC operating conditions included the FID detector (250° C.) at a sensitivity range of 10 and helium as the carrier gas at a linear velocity of 40 cm s^−1. […] The reaction mixture after extraction (0.5 μl) was directly applied onto the injector (200° C.) for each assay. The peak areas were quantitated using specific external standards.

[7] = Procedure: The effect of pH on the enzyme activities was determined over a range of 5.5-11.4. The buffers (100 mM) used were phosphate (pH 5.5-8.0), EPPS (8.0-9.0), glycylglycine (9.0-9.7), and CAPS (9.7-11.4). The effect of the temperature on the enzyme activity was examined at temperatures from 30 to 95° C. […] Residual activity was assayed at various time intervals under the standard assay conditions. Substrate specificity was determined using primary and secondary alcohols (50 mM), diols and polyols (50 mM), or aldehydes and ketones (6 mM) under standard assay conditions.
as §4

[8] = remark: listed apart in the source
Text: Enzymes resistant to solvent inactivation are of great interest from scientific and practical points of view.

[9] = ADH specific activity (spectrophotometric enzyme assay); assay type: biochemical; conditions: 80° C.; for Specific activity: standard assay
Procedure: as §1
The reaction was initiated by adding enzymes.

[10] = cited from earlier work

Molecule: nicotinamide adenine dinucleotide phosphate [NADPH]
- Apparent Km for NADPH, times lower than for NADP^+ (T. guaymasensis ADH [1]): 40 times

Molecule: C[C@H](O)[C@H](C)O [(2S,3S)-(+)-2,3-butanediol]
- Apparent Vmax (T. guaymasensis ADH [2]): 769 U mg^−1
- kcat (T. guaymasensis ADH [2]): 512 s⁻¹

B1: TgADH: alcohol dehydrogenase purified from Thermococcus guaymasensis, SEQ ID NO:4, homotetramer, zinc-containing, NADP^+-dependent (protein, listed as Thermococcus guaymasensis)
chain: SKMRGFAMVDFGKAEWIEKERPKPGPYDAIVKPIAVAPCTSDIHTVFEAAFPREMCEFPRILGHEAVGEVVEVGSHVKDFKPGDRVVVPAITPDWRTLDVQRGYHQHSGGMLAGWKFSNPLKEGGKDGVFAEYFHVNDADMNLAHLPDEIKPEVAVMATDMMTTGFHGAELADIPLGGTVAVIGIGPVGLMAVAGARLLGAGRIIAVGSRPVCVEAAKYYGATDIVNRREHPDIAGRILELTGGEGVDSVIIAGGNVDVMKTAVKIVKPGGTVANINYFGSGDYLPIPRIEWGQGMAHKTIKGGLCPGGRLRMERLLDLIKYGRVDPSRLITHKFKGFDKIPEALYLMKDKPKDLIKPVVIIEE
modifications: homotetramer, zinc-containing
- Activity after exposure to air (in words) ([3]; exposed to air for a week): lost activity
- t1/2 upon exposure to the air [3]: 6 h
- t1/2 upon exposure to the air ([3]; listed as T. guaymasensis ADH): about 4 hours
- Optimal pH, acetaldehyde reduction [4]: 7.5
- Optimal pH, ethanol oxidation [4]: 10.5
- Optimal pH, formation of alcohols (2-butanone reduction) [4]: 7.5
- Optimal pH, oxidation of alcohols (2-butanol) [4]: 10.5
- Optimal temperature ([5]; tested 30 to 95° C.): over 95 °C
- Chiral compound synthesis preference (T. guaymasensis ADH [6]): R-configured
- Thermostability [7]: 24 hr at 95 °C
- t1/2 (thermostability) [7]: 70 h
- Activity after incubation ([7]; 80° C. for 40 hours): 60%
- Enzyme activity remaining, of full activity [8]: about 40%
- Methanol concentration at which half of full activity remained [8]: about 24 % (v/v)
- Methanol concentration up to which the enzyme was active [8]: up to 40 % (v/v)
- Solvent tolerance ([8]; methanol): 24% methanol
- Enzyme activity retained (in words) ([8]; methanol up to 5% (v/v)): almost its full activity
- Enzyme (specific) activity ([9]; 2-butanol as assay substrate): 1149 U mg^−1
- Specific activity [9]: 1049 U/mg

B2: T. brockii: T brockii ADH available at Sigma Aldrich, essentially T ehtanolicus ADH (protein, UniProt P14941 1-352, looked up)
NADP-dependent isopropanol …: MKGFAMLSIGKVGWIEKEKPAPGPFDAIVRPLAVAPCTSDIHTVFEGAIGERHNMILGHEAVGEVVEVGSEVKDFKPGDRVVVPAITPDWRTSEVQRGYHQHSGGMLAGWKFSNVKDGVFGEFFHVNDADMNLAHLPKEIPLEAAVMIPDMMTTGFHGAELADIELGATVAVLGIGPVGLMAVAGAKLRGAGRIIAVGSRPVCVDAAKYYGATDIVNYKDGPIESQIMNLTEGKGVDAAIIAGGNADIMATAVKIVKPGGTIANVNYFGEGEVLPVPRLEWGCGMAHKTIKGGLCPGGRLRMERLIDLVFYKRVDPSKLVTHVFRGFDNIEKAFMLMKDKPKDLIKPVVILA
- Thermostability ([10]; at 93.8° C.): 60 min at
- Solvent tolerance ([10]; isopropanol): 64%

B3: recombinant TgADH: recombinant wild-type TgADH polypeptide (SEQ ID NO: 8) expressed in E. coli BL21-codon plus RIL with vector pET30a (protein)
chain: MHHHHHHSSGLVPRGSGMKETAAAKFERQHMDSPDLGTDDDDKAMADIGSEFMSKMRGFAMVDFGKAEWIEKERPKPGPYDAIVKPIAVAPCTSDIHTVFEAAFPREMCEFPRILGHEAVGEVVEVGSHVKDFKPGDRVVVPAITPDWRTLDVQRGYHQHSGGMLAGWKFSNPLKEGGKDGVFAEYFHVNDADMNLAHLPDEIKPEVAVMATDMMTTGFHGAELADIPLGGTVAVIGIGPVGLMAVAGARLLGAGRIIAVGSRPVCVEAAKYYGATDIVNRREHPDIAGRILELTGGEGVDSVIIAGGNVDVMKTAVKIVKPGGTVANINYFGSGDYLPIPRIEWGQGMAHKTIKGGLCPGGRLRMERLLDLIKYGRVDPSRLITHKFKGFDKIPEALYLMKDKPKDLIKPVVIIEE
modifications: Wild-type with vector coding region
- t1/2 upon exposure to the air [3]: about 4 hours
- Optimal pH, formation of alcohols (2-butanone reduction) [4]: 7.5
- Optimal pH, oxidation of alcohols (2-butanol) [4]: 10.5
- Highest activity in temperature dependence test ([5]; at 95° C.): 1533 U/mg
- t1/2 (thermostability) [7]: about 26 hours
- Enzyme activity after heat treatment of cell extract (in words) ([7]; 60° C. for half an hour): no loss
- Residual activity after incubation ([7]; 42 hours at 80° C.): more than 60%
- Specific activity [9]: 1079 U/mg and 1073 U/mg
- Specific activity ([9]; listed as recombinant enzyme): 1073 U/mg

From patent publication US8476051B2, “Thermostable alcohol dehydrogenase derived from Thermococcus guaymasensis” (priority 2008, dated 2013)
